Test [1] has as its target T1, CD96 (human) (UniProt P40200).
T1 sequence: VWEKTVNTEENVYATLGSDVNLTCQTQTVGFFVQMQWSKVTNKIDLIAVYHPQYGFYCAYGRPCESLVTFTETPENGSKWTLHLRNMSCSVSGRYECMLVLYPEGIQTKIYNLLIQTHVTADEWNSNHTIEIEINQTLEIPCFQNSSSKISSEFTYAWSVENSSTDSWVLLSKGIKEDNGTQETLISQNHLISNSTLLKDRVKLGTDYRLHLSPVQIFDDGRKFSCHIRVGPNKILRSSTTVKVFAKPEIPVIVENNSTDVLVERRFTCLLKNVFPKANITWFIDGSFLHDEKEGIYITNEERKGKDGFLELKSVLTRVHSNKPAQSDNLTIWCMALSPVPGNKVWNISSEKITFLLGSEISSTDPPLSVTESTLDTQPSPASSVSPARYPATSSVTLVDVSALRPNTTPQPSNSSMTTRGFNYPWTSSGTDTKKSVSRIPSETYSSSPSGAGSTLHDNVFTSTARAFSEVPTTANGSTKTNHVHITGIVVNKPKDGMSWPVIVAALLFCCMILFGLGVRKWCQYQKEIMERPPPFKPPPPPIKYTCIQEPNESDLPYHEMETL
In words: flow cytometry, transfected HEK293; secondary reagent alone.

Test [2] concerns the target T2, TIGIT (human) (UniProt Q495A1).
T2 sequence: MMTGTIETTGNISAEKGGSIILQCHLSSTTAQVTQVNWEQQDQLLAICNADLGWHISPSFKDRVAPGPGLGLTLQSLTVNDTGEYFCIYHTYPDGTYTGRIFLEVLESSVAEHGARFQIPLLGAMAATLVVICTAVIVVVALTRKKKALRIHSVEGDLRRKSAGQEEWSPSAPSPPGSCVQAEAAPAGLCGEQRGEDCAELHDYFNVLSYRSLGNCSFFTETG
The test is described as above.

In test [3] the target is CD112R (human) (UniProt Q6DKI7). Described as above.
Sequence of CD112R (human) (Q6DKI7 whole entry, the tested form may be a part): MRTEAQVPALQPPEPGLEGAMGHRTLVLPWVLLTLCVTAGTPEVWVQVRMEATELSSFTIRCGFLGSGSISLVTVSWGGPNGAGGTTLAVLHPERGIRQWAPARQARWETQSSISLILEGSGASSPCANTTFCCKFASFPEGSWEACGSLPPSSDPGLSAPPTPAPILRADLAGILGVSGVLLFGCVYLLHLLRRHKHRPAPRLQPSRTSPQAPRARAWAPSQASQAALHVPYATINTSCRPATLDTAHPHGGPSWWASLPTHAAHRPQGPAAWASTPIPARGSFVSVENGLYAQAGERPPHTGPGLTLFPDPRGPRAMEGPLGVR
In test [4] the target is T3, CD226 (human) (UniProt Q15762).
T3 sequence: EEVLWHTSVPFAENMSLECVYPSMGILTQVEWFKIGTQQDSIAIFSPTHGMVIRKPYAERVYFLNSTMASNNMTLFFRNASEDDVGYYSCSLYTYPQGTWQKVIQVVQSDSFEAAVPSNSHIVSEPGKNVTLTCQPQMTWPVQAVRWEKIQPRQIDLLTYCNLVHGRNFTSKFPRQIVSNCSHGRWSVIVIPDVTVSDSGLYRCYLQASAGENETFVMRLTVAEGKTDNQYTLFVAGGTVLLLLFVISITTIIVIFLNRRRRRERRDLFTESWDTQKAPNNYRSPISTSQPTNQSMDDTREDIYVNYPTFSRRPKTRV
Described as above.

Test [5] addresses T1, CD96 (human). Kind of test: flow cytometry on transfected HEK293 cells, 100 nM.
Test [6] deals with T2, TIGIT (human). In words: flow cytometry on transfected HEK293 cells, 100 nM.
Test [7] addresses T2, TIGIT (human). In words: flow cytometry, transfected HEK293.
In test [8] the target is CD112R (human) (UniProt Q6DKI7). Kind of test: flow cytometry, transfected HEK293. In general terms: Flow cytometry measures light scatter and fluorescence of single cells or particles in a stream.
Test [9] deals with T1, CD96 (human). Kind of test: flow cytometry, transfected HEK293.
The target of test [10] is T3, CD226 (human). In words: flow cytometry, transfected HEK293.
The target of test [11] is CD112R (human) (UniProt Q6DKI7). Kind of test: flow cytometry, Fc fusion on Expi293 cells transfected with full-length human CD112R.
Test [12] addresses T2, TIGIT (human). Kind of test: flow cytometry, Fc fusion on Expi293 cells transfected with full-length human TIGIT.
In test [13] the target is T3, CD226 (human). Kind of test: flow cytometry, Fc fusion on Expi293 cells transfected with full-length human CD226.
In test [14] the target is T2, TIGIT (human). Kind of test: flow cytometry, TIGIT-transfected Expi293 cells.
For test [15], the target named is T1, CD96 (human). Kind of test: flow cytometry, CD96-transfected Expi293 cells.
The target of test [16] is T1, CD96 (human). Kind of test: flow cytometry, CD96-transfected Expi293 cells; ratio to wild-type CD155.
The target of test [17] is T3, CD226 (human). Kind of test: flow cytometry, CD226-transfected Expi293 cells.
The target in test [18] is CD80 (human). Kind of test: flow cytometry, cells expressing CD80, 20 nM.
Test [19] has as its target human PD-1 (human) (UniProt Q15116). In words: flow cytometry, cells expressing PD-1, 20 nM.
The target of test [20] is CD28 (human) (UniProt P10747). Kind of test: flow cytometry on HEK293 cells transfected with CD28; Fc control.
In test [21] the target is CTLA-4 (human). Kind of test: flow cytometry on HEK293 cells transfected with CTLA4; Fc control.
Test [22] deals with PD-L1 (human). In words: flow cytometry on HEK293 cells transfected with PD-L1; Fc control.
Test [23] concerns the target CTLA-4, full-length, expressed on transfected cells (Homo sapiens (Human)) (UniProt P16410). In words: flow cytometry, cells expressing target.
In test [24] the target is CD28, full-length, expressed on transfected cells (Homo sapiens (Human)) (UniProt P10747). In words: flow cytometry, cells expressing target.
The target in test [25] is ICOS, full-length, expressed on transfected cells (Homo sapiens (Human)) (UniProt Q9Y6W8). Kind of test: flow cytometry, cells expressing target.
Sequence of ICOS, full-length, expressed on transfected cells (Homo sapiens (Human)) (Q9Y6W8 21-199 limits assumed): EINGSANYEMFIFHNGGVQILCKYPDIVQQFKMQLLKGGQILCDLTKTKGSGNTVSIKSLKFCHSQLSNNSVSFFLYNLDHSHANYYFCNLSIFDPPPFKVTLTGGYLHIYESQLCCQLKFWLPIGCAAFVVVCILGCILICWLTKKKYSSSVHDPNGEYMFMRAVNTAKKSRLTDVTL
Test [26] has as its target CD28 (human) (UniProt P10747). In words: flow cytometry, transfected cells.
Test [27] concerns the target ICOS as used in the OD read-out of Table E15A (Homo sapiens (Human)) (UniProt Q9Y6W8). Kind of test: OD read-out, format not told.
Test [28] concerns the target CD28 (human) (UniProt P10747). Kind of test: flow cytometry, transfected cells. This is another data set of the same source.
The target of test [29] is human CTLA-4 (human). Kind of test: flow cytometry, CHO/CTLA-4 cells, 100 nM, anti-Flag.
Sequence of human CTLA-4 (human) (chain, as listed by the source): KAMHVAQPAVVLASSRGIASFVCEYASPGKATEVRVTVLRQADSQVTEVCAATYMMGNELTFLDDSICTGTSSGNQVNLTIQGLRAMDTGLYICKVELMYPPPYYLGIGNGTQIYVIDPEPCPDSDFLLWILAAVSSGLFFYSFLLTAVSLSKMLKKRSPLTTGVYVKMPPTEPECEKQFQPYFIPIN
The target in test [30] is human PD-1 (human) (UniProt Q15116). In words: flow cytometry, CHO/PD-1 cells, 100 nM, anti-Flag.
Target sequence in this assay (Q15116 25-288): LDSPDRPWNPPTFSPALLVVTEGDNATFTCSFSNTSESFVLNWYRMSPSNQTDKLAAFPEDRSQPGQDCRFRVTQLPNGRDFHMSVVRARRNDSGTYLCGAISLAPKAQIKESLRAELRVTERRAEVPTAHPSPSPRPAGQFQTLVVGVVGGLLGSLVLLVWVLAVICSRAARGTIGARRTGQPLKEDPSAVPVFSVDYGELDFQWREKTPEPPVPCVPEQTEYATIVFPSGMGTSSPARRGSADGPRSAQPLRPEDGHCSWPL
In test [31] the target is PD-L1 (human). In words: flow cytometry on HEK293 cells transfected with PD-L1.
Target sequence in this assay (chain, as listed by the source): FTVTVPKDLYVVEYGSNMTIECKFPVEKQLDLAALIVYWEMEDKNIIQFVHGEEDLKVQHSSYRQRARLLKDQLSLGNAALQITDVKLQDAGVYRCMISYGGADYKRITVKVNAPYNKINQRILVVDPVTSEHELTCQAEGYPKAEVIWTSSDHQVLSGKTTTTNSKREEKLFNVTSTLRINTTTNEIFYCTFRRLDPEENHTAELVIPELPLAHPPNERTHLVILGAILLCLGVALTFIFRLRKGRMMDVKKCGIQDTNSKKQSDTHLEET
Test [32] deals with CD28 (human) (UniProt P10747). Kind of test: flow cytometry on HEK293 cells transfected with CD28.
The target of test [33] is CTLA-4 (human). In words: flow cytometry on HEK293 cells transfected with CTLA4.
Test [34] deals with human PD-1 (human) (UniProt Q15116).
Target sequence in this assay (Q15116 25-288): as the sequence (Q15116 25-288) above
The target in test [35] is CD28 (human) (UniProt P10747). In words: flow cytometry, Jurkat cells (endogenous CD28), 100 nM, anti-Flag.
Test [36] addresses PD-1-Fc (human) (UniProt Q15116). In words: ForteBio Octet, PD-1 on anti-human capture sensor, 100 nM. In general terms: In BLI a coated tip is dipped into the sample, and binding shifts an interference pattern.

Consider 34 substances from patent publication US20250163127A1.

“And” between values parts separate entries of the source, which are not always exact repeats. Identical values can stand only once.

Sequence of Wild type CD155 IgV-Fc (Fc fusion) (chain): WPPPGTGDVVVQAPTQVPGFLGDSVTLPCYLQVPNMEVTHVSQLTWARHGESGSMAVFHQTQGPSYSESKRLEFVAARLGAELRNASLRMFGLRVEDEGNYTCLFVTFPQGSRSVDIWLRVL
Sequence of WT CD80 IgV-Fc (inert) (Fc fusion) (chain): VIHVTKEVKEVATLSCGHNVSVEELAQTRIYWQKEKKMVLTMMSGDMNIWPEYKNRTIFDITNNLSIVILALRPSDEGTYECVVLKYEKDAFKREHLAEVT
Sequence of WT CD112 IgV (Fc fusion) (chain): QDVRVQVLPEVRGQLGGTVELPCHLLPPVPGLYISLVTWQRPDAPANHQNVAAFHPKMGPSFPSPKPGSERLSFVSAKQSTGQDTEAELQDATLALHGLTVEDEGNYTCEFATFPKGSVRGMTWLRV
Sequence of Wild-type PD-L1 (IgV, SEQ ID NO 309) (ligand) (chain): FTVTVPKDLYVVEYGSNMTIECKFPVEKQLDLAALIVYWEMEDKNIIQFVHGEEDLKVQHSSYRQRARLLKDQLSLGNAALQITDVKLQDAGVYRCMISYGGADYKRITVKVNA
Sequence of CD112 ECD-Fc (Fc fusion) (chain): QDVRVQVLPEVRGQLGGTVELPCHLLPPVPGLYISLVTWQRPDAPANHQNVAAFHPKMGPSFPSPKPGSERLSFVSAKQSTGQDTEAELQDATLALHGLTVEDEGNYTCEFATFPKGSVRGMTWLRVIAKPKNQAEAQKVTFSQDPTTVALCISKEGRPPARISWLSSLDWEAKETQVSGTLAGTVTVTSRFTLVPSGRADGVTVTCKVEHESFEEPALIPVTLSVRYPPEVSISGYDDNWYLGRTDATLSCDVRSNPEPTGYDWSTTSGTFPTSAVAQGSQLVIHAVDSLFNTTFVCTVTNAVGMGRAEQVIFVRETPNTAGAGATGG
Sequence of WT CD80 ECD-Fc (Fc fusion) (chain): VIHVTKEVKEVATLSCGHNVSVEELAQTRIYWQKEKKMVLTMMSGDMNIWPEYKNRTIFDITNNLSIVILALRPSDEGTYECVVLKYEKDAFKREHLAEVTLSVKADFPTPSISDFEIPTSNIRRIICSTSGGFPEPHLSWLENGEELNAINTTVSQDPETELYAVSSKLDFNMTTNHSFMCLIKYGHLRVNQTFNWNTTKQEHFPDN
Sequence of Wild Type PD-L2 IgV Fc fusion (chain): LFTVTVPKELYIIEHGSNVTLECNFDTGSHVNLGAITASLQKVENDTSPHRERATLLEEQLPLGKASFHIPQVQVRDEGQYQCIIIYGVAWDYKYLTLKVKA
Sequence of Wildtype CD112-IgV Fc (Fc fusion) (chain): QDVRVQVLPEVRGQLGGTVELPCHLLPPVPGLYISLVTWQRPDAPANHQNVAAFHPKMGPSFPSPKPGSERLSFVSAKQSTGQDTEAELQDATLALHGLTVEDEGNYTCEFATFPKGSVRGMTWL
Sequence of PD-1-Fc (human) (Q15116 25-167 limits assumed): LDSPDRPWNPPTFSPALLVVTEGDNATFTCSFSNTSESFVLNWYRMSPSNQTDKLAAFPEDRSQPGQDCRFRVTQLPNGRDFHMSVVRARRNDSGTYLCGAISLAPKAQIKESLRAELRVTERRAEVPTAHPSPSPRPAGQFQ

Anti-huFc PE (tool reagent): the MFI at 20 nM in [1] was 1060; in test [2], 1140; in [3], 1010; in test [4], 1010.
Turning to CD112 ECD-Fc (Fc fusion), the values for the MFI at 100 nM in test [5] and in [6] were 1100 MFI and 29200 MFI, respectively.
In the case of CD112 IgV-Fc A112V (Fc fusion), the MFI at 20 nM is 69700 in [7]; 1140 and 1110 in [8].
CD112 IgV-Fc Y33H/A112V (Fc fusion): the Fold Increase to WT IgV in test [9] was 1.25 fold; in [7], 5.09 fold; in test [8] it was 0.69 fold; in test [10], 1.28 fold. Also, the MFI at 20 nM in test [9] came out at 3120; in test [7] it was 178000; in test [8] it was 1150; in test [10], 13800.
On to CD112 N106Y, A112V (Fc fusion), for which the figures for the MFI in [11], in test [12] and in test [13] were 1970 MFI, 6040 MFI and 15300 MFI, respectively. In addition, the MFI parental ratio (parental ratio) is 1.36 in test [11] and 0.06 in test [13].
Take CD112 Y33H, A112V (Fc fusion): the figures for the MFI in test [12] and in [13] were 99000 MFI and 231000 MFI, respectively.
With CD155 IgV-Fc A81V, L83P (Fc fusion), the MFI in test [14] stood at 2910; in test [15], 2620.
In the case of “CD155 IgV-Fc P18L, L79V, F91S (Fc fusion)”, the MFI in test [14] was 4070; in [15], 3280; in test [17], 5140. For the same substance, in [16], the MFI parental ratio came to 1.1.
For “CD155 IgV-Fc P18T, F91S, R94H (Fc fusion)”, in that order: 2940, 2510, 3590 and 0.8.
Regarding Fc Control, the values for the MFI at 20 nM in [18] and in test [19] were 132 MFI and 59 MFI, respectively.
Consider Fc only, for which the MFI at 66.6 nM in test [20] stood at 2590 MFI; in test [21], 5960 MFI. In test [22], the MFI at 22.2 nM was 4740 MFI.
Turning to ICOSL ECD-Fc F138L/L203P (Fc fusion), the MFI is 2150 MFI in [23], 1510 MFI in test [24] and 53800 MFI in test [25].
Regarding “ICOSL ECD-Fc N30D/K42E/N52S/H115R/F172S/N194D (Fc fusion)”, the MFI in test [26] was found to be 4400 MFI.
On to “ICOSL ECD-Fc N52H/N57Y/Q100P (Fc fusion)”, for which, in [24], the MFI came out at 447 MFI and the parental ratio is 24.8 ratio to WT. In [27], the OD amounted to 1.57 OD.
As to “ICOSL ECD-Fc N52Q/N84Q/N168Q (Fc fusion)”, the MFI in test [28] was 1580 MFI.
In turn, ICOSL ECD-Fc N52S/E220G (Fc fusion) returned an MFI in [23] of 1800 MFI.
Take “ICOSL ECD-Fc N52S/S130G/Y152C (Fc fusion)”: in test [24], the MFI worked out at 24 MFI. In addition, in [27], the OD worked out at 0.16 OD and the parental ratio was 0.19 ratio to WT.
For “ICOSL ECD-Fc V11E/N30D/N52H/N57Y/H94E/L96I/L98F/N194D/V210A/I218T (Fc fusion)”, the MFI in test [23] amounted to 62800 MFI; in test [24], 120000 MFI; in test [25] it was 180000 MFI. Also, the parental ratio in test [23] was 3.55 ratio to WT; in test [24] it was 26.8 ratio to WT.
Consider “PD-L2 1417 (monomeric variant PD-L2 IgV H15Q/T47A/K65R/S67L/Q82R/V89D) (ligand)”, for which the MFI in test [29] turned out to be 152; in [30], 26200.
In [31], Variant CD80 S44P/A71D Fc fusion displayed an MFI at 22.2 nM of 6310 MFI.
As for WT CD80 ECD-Fc (Fc fusion), the MFI at 66.6 nM in test [32] came to 24800 MFI.
WT CD80 IgV-Fc (inert) (Fc fusion): the MFI at 66.6 nM in test [32] worked out at 1620 MFI; in test [33], 20700 MFI. In test [31], this substance displayed an MFI at 22.2 nM of 1770 MFI.
Regarding WT CD112 IgV (Fc fusion), the MFI at 20 nM is 2500 in test [9], 34900 in test [7], 1660 in test [8] and 10800 in test [10].
For the substance Wild Type PD-L2 IgV Fc fusion, in [34], the IFN gamma levels pg/mL (MLR) came to 1380 pg/mL.
For the substance Wild type CD155 IgV-Fc (Fc fusion), the MFI in test [14] worked out at 2720; in test [15], 3080; in test [17], 3720.
As to “Wild-type PD-L1 (IgV, SEQ ID NO 309) (ligand)”, the MFI in test [35] was 716; in test [29] it was 97.4.
As to Wildtype CD112-IgV Fc (Fc fusion), the MFI at 100 nM in test [6] came out at 82400 MFI.
The same measure, in the same setting: the value for “variant CD112 IgV-Fc Y33H, A112V (Fc fusion)” was 20600 MFI.
Take “variant PD-L1 G15A/I36T/V129D/R195G Fc fusion”: the MFI at 20 nM in test [19] was found to be 125 MFI.
With “variant PD-L1 I36T/M97L/A103V/Q155H Fc fusion”, the MFI at 20 nM turned out to be 128 MFI in test [18] and 120 MFI in test [19].
As to variant PD-L1 V129D/H202Q Fc fusion, the MFI at 20 nM in test [19] stood at 2000 MFI.
“variant PD-L2 IgV H15Q/T47A/H69L/Q82R/V89D Fc fusion” had an IFN gamma levels pg/mL (MLR) in test [34] of 1730 pg/mL.
On the same count and under the same terms, to “variant PD-L2 IgV H15Q/T47A/K65R/S67L/Q82R/V89D Fc fusion” belongs 1340 pg/mL.
Turning to “variant PD-L2 IgV I13V/H15Q/R76G/I85F Fc fusion”, in test [36], the Fortebio Response Units (Response Units) was -0.04. Also, the IFN gamma levels pg/mL (MLR) in test [34] is 1530 pg/mL.
